± gives the half width of the 95% confidence interval.

The nature of series [1]: folding stability dG unfold from trypsin proteolysis; higher = more stable. The essentials:
(§1)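 Mini-proteins designed to be under 80 residues and free of cysteine were carried in a PA-tagged cDNA display construct and digested with trypsin and with chymotrypsin. Each protease was applied at 11 threefold-diluted concentrations, alongside a no-protease condition, before sequencing. K50 came from Bayesian fitting of the sequencing counts, and unfolding free energy was obtained by comparing it with a sequence-predicted unfolded-state K50 and a shared folded-state K50, for each protease separately or for both together. Designs were retained only if their AlphaFold2 dimer inter-PAE exceeded 15.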

Series [2] can be described thus: folding stability dG unfold from chymotrypsin proteolysis; higher = more stable. The essentials: as §1
The nature of series [3]: folding stability dG unfold (combined trypsin and chymotrypsin); higher = more stable. The procedure, abridged: as §1

For the sequence “SAGGMKVRVRLPDGTEVELEVTEVTVSTDPSTGTPVYTITLANGEKLTVTVPVDKPVRPGETVTVTPESAGG [r13_390_JUSTAS]”, the “folding stability dG unfold” value in series [1] came out at 3.72 ± 0.056 kcal/mol; in series [2] it was 3.71 ± 0.053 kcal/mol; in series [3] it was 3.81 ± 0.056 kcal/mol.

For “SAGGMKVTEEPDATIVEVPLPDRKLTLTITRDGPGVTVTVTEDGEVLKTIPTDGPAEEAIAAAIAALSAGGS [r8_276_JUSTAS]”, the “folding stability dG unfold” value amounted to 1.04 ± 0.016 kcal/mol in series [1], 1.43 ± 0.059 kcal/mol in series [2] and 1.29 ± 0.07 kcal/mol in series [3].

As to “SAGGMKVTITVTDPEAFRAAVEALPEVPPEQVSTSPLPGNSYTATFPSEKAVELLKAAGVPITEIAASAGGS [r16_381_JUSTAS]”, the “folding stability dG unfold” value is 0.377 ± 0.022 kcal/mol in series [1], 0.63 ± 0.074 kcal/mol in series [2] and 0.568 ± 0.05 kcal/mol in series [3].

“SAGGMKVTVTEDGSSSKVTITIKDPKTGIEKTYTATATVLPDGTVVYTITYPDGSKKTIPSSELELSSAGGS [r16_154_JUSTAS]”: the “folding stability dG unfold” value in series [1] came to 2.11 ± 0.087 kcal/mol; in series [2] it was 4.02 ± 0.051 kcal/mol; in series [3], 3.61 ± 0.11 kcal/mol.

Consider “SAGGMKVTVYPDGTVSVEIEPGQTLTVSLGDKEYTVTAEYPSITITTTPVPVPPPAVPPENVDPSLVSAGGS [r16_600_JUSTAS]”, for which the entries for the “folding stability dG unfold” value in series [1], in series [2] and in series [3] were 1.54 ± 0.11 kcal/mol, 0.984 ± 0.051 kcal/mol and 1.23 ± 0.15 kcal/mol, respectively.

As to “SAGGMKYLVTITITDPDTGQERVIEVEFPDMTPEEIKEAAEELAEEIASEQGLNLKVEVEVTPIPLLSAGGS [r8_185_JUSTAS]”, the “folding stability dG unfold” value was 3.95 ± 0.11 kcal/mol in series [1], 3.34 ± 0.077 kcal/mol in series [2] and 3.55 ± 0.068 kcal/mol in series [3].

Take “SAGGMLEVTEEPLELGDRPVTRTTITLPDGTVVTVTTEAGTGAMTVTYPDGTTKTVTSEEDALAALLSAGGS [r8_168_JUSTAS]”: the “folding stability dG unfold” value in series [1] came out at 2.66 ± 0.11 kcal/mol; in series [2], 1.19 ± 0.051 kcal/mol; in series [3] it was 2.02 ± 0.094 kcal/mol.

As to “SAGGMLGFRAETDLFVEPIPPGAEVEPLRIGDRLLLIVRHPDGSYTINLFTPVRPLPVPPAFSTANAASAGG [r13_804_TrMRF]”, the “folding stability dG unfold” value is 1.6 ± 0.036 kcal/mol in series [1], 1.64 ± 0.069 kcal/mol in series [2] and 1.68 ± 0.051 kcal/mol in series [3].

On to “SAGGMLILIKVKNKKYEIEINGKKIEVEEKDGYLIIKVSPEALEALKKIPNLENIEEIKIFPEEELKSAGGS [r8_493_TrROS_Hall]”, for which the “folding stability dG unfold” value in series [1] amounted to 2.07 ± 0.035 kcal/mol; in series [2] it was 2.57 ± 0.033 kcal/mol; in series [3] it was 2.32 ± 0.089 kcal/mol.

Consider “SAGGMLLVRIRVKLSPEQIKALEEAGFEVVEERDGEVVVRLEVSPEQLEKLKALFPDAEIEVVELPPESAGG [r13_261_TrROS_Hall]”, for which the entries for the “folding stability dG unfold” value in series [1], in series [2] and in series [3] were 5.44 ± 0.49 kcal/mol, 4.96 ± 0.1 kcal/mol and 5.26 ± 0.29 kcal/mol, respectively.

“SAGGMLPGEPEVELVLEIEIDVPPGEISAEELERLLRELFPGAEVVDVRVEEEGGKLRIEVVIRLPPSAGGS [r8_202_TrROS_Hall]”: the “folding stability dG unfold” value in series [1] was 3.42 ± 0.14 kcal/mol; in series [2], 2.67 ± 0.058 kcal/mol; in series [3], 3.17 ± 0.13 kcal/mol.

As for “SAGGMLPLVVKVKTPDGEEYTFVVAYNPETSELWLPLPKEPTWRNVPLTEASSIPEFQIVEARPLALESAGG [r13_994_TrMRF]”, the “folding stability dG unfold” value turned out to be 0.348 ± 0.056 kcal/mol in series [1], 0.943 ± 0.064 kcal/mol in series [2] and 0.761 ± 0.087 kcal/mol in series [3].

For the sequence “SAGGMLRIRIDGREIEIGMTVEEILAAIEKELGREISPELREALRKAKTPEEIVEALRKLGLKIEIESAGGS [r16_601_TrROS_Hall]”, the figures for the “folding stability dG unfold” value in series [1], in series [2] and in series [3] were 3.66 ± 0.08 kcal/mol, 5.17 ± 0.086 kcal/mol and 4.8 ± 0.087 kcal/mol, respectively.

Regarding “SAGGMLVRVTLPSGETVELPVTSLDAAARRLREELGLPAGARLRVEVYDPVTGEVTEYELVIPVPEPVSAGG [r13_145_TrMRF]”, the “folding stability dG unfold” value came to 4.92 ± 0.18 kcal/mol in series [1], 4.33 ± 0.062 kcal/mol in series [2] and 4.68 ± 0.1 kcal/mol in series [3].

For the sequence “SAGGMMKLELEIEKEDGKKYKIEVEYNKEEPVLKIKIYDKNGKKIKEIEIKAKSLEEALEAAKKLLKSAGGS [r16_158_TrROS_Hall]”, the “folding stability dG unfold” value in series [1] was 3.3 ± 0.14 kcal/mol; in series [2], 3.99 ± 0.2 kcal/mol; in series [3], 3.68 ± 0.22 kcal/mol.

With “SAGGMMTVRIVIEKDGKKITITAKVTKIEFDEETGKLTITFEDGSKKEIDLDKLKIKKIEVEPAPEEESAGG [r13_636_TrROS_Hall]”, the figures for the “folding stability dG unfold” value in series [1], in series [2] and in series [3] were 1.66 ± 0.078 kcal/mol, 3.06 ± 0.19 kcal/mol and 2.81 ± 0.21 kcal/mol, respectively.

For the sequence “SAGGMMYLIKVDTKEELKELAEAPGAKIVEEKEVNGKLYLLIEFPPGVTKIKIDVETRKIVEIEKLPSAGGS [r8_251_TrROS_Hall]”, the “folding stability dG unfold” value in series [1] worked out at 0.759 ± 0.13 kcal/mol; in series [2], 1.58 ± 0.15 kcal/mol; in series [3], 1.37 ± 0.26 kcal/mol.

As to “SAGGMNMKPIKKETFTLPDENGNEVKIEIYKLEDGSYIIKITYPSGKTETFIVPDEETAKNLKIEIKPSAGG [r13_109_TrMRF]”, the “folding stability dG unfold” value is 1.66 ± 0.12 kcal/mol in series [1], 2.91 ± 0.046 kcal/mol in series [2] and 2.62 ± 0.18 kcal/mol in series [3].

Values taken from the supplement of paper PMC12764529.
